Reference: patent US20240158515A1 (Regeneron, published 2024)

How the values were obtained:
Experiment in all cases: SPR Biacore, mAb captured on anti-hFc, 25C
[1] = molecular target: T1, murine FGFR3b expressed with a C-terminal myc-myc-hexahistidine tag (mFGFR3b.mmH) (murine)
T1 construct: also called REGN3215; monomeric murine FGFR3b
T1 chain: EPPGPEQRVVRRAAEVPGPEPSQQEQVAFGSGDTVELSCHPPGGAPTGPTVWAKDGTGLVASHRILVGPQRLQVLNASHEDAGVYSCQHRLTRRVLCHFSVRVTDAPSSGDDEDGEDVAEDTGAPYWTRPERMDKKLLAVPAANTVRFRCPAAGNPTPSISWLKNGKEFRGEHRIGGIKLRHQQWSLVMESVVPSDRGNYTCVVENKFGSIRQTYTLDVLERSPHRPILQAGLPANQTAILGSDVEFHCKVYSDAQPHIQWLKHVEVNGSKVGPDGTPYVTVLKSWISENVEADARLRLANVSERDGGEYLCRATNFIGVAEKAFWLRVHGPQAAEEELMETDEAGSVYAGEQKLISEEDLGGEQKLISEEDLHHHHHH

[2] = molecular target: T2, cynomolgus FGFR3b expressed with a C-terminal myc-myc-hexahistidine tag (mfFGFR3b.mmH) (cynomolgus)
T2 construct: also called REGN3521; mf FGFR3b ecto (R357G)(E23-G377;R357G).mmH
T2 chain: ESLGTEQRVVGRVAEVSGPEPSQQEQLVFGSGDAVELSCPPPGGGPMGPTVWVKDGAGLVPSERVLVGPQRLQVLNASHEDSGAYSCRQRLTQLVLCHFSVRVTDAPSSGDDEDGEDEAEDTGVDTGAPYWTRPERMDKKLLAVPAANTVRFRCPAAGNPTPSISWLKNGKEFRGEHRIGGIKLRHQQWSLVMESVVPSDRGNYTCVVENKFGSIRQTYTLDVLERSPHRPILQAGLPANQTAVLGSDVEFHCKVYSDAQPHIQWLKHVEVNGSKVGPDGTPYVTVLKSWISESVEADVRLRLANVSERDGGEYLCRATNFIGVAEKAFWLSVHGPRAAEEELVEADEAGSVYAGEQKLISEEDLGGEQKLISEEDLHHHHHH

[3] = molecular target: T3, human FGFR3b expressed with a C-terminal murine Fc tag (hFGFR3b.mFc) (human)
T3 construct: called dimeric; also called REGN3153; dimeric human FGFR3b
T3 chain: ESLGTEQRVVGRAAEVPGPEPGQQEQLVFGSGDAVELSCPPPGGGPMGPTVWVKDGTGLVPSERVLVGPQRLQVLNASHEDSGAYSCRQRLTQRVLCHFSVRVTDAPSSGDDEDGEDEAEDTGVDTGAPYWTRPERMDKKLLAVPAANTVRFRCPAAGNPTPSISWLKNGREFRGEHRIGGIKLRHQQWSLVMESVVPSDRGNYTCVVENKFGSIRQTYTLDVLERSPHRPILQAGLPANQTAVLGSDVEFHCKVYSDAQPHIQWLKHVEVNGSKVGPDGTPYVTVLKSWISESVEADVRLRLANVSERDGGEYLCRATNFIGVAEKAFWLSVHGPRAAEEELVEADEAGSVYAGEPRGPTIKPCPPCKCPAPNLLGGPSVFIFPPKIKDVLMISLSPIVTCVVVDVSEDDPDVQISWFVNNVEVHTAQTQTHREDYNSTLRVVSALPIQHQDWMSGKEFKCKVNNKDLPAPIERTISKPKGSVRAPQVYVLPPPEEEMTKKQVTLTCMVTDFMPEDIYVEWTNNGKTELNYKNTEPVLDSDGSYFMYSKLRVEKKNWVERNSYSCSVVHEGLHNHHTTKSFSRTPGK

B1: H4H30063P (antibody, human IgG4 S228P, kappa, V domains shown)
VH: QVQLQESGPGLVKPSETLSLTCTVSGDSINSYFWSWIRQLPGKELEWIGHIYSSGSTRYNPSLQSRVTISIDTSKNQFSLKLSSVTAADTAVYYCARGASAVDYWGQGTLVTVSS
VL: EIVLTQSPGTLSLSPGERATLSCRTSQSISSGYLAWYQQKPGQAPRLLIYGASRRATGIPDRFSGSGSGTDFTLTISRLEPEDFVVYYCQQYGSSPYTFGQGTKLEIKR
notes: HCVR 2, LCVR 10; also called REGN15684
For B1, the “90 nM mFGFR3b.mmH Bind (RU)” value [1] was 259 RU, the Kd [1] was 137 pM and the koff [1] was 2.78e-05 s⁻¹. For the same binder, the kon [1] was 204000 M⁻¹ s⁻¹, the “t½” value [1] was 6.92 h and the “90 nM mfFGFR3b.mmH Bind (RU)” value [2] was 212 RU. It also gave a Kd [2] of 275 pM, a koff [2] of 4.21e-05 s⁻¹ and a kon [2] of 153000 M⁻¹ s⁻¹. The “t½” value [2] was 4.58 h, the “30 nM hFGFR3b.mFc Bind (RU)” value [3] was 296 RU and the Kd [3] was at most 22.6 pM. The koff [3] was at most 1e-05 s⁻¹, the kon [3] was 442000 M⁻¹ s⁻¹ and the “t½” value [3] was at least 19.2 h.
